Reference: publication PMC2132707
Several values for one entry are separate records, joined by “and”; a condition that tells them apart may be missing. Equal values may be shown once.

Target: heavy chains (Iα and Iβ) of inner arm dynein I1 (Chlamydomonas reinhardtii (endogenous in axonemes)) (UniProt Q9SMH3)
Assay: quantitative densitometry of Coomassie blue-stained gels

Substance: Chlamydomonas 8,000-M r LC (natural protein)
- most likely relative stoichiometry (relative to the HCs) (relative to the HCs): 4 to 5.5
- relative stoichiometry (relative to the HCs) (relative to the HCs): 4 to 5.5

Substance: IC97 of inner arm dynein I1 (natural protein)
- most likely relative stoichiometry (relative to the HCs) (relative to the HCs): 0.5 to 1
- relative stoichiometry (relative to the HCs) (relative to the HCs): 0.95 and 0.67 and 0.56

Substance: IC140 of inner arm dynein I1 (natural protein)
- most likely relative stoichiometry (relative to the HCs) (relative to the HCs): 0.5 to 1
- relative stoichiometry (relative to the HCs) (relative to the HCs): 0.71 and 0.53 and 0.63
